Results taken from publication PMC8582233.

Molecular target: Recombinant SARS-CoV-2 S trimer (SARS-CoV-2) (UniProt P0DTC2)
Assay: MST

Substance | Kd
Recombinant L-SIGN/CD299 (from UniProt Q9H2X3 1-399) (receptor) | 43.7 nM
Recombinant DC-SIGN/CD209 (from UniProt Q9NNX6 1-404) (receptor) | 28.8 nM
